Earlier results, collected in publication PMC3859915.

Molecular target: IL-15 (Mus musculus) (UniProt P48346)
Chain of UniProt P48346 (P48346 49-162): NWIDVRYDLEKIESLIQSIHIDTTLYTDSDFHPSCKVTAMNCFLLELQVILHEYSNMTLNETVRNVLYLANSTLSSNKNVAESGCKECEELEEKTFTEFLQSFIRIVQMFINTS

For IL-15Rα (from UniProt Q60819), the Kd is given as 0.014 nM.
